Assay results from patent US20240270821A1, “GIP/GLP1/GCG TRI-RECEPTOR AGONISTS AND USES THEREOF” (priority 2023, published 2024).
Changes are numbered by the printed parent chain. Non-standard residues stand in square brackets, D forms with d. No end group written: not given here. αMePhe(2-F) = C[C@](N)(Cc1ccccc1F)C(=O)O; Aib = CC(C)(N)C(=O)O

T1: human GIP receptor (human) (UniProt P48546)
T1 sequence (looked up): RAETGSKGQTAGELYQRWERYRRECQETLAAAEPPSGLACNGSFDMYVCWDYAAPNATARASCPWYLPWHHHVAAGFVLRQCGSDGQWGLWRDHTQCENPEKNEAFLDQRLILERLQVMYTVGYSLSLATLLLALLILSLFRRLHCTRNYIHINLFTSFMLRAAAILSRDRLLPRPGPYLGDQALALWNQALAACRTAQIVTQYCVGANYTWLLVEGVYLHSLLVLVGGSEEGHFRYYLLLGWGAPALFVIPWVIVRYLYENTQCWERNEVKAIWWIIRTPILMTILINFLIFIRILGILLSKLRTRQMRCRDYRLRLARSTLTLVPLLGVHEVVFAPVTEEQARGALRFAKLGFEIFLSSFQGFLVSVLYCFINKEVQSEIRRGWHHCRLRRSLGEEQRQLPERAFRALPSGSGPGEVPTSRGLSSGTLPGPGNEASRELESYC

B1: Example 413 (peptide)
chain: YXQGTXTSDXSILLDKKAQXAFIEYLEEGGPSSGAPPPS
modifications: not fully specified; synthetic construct; SITE 2: note = 2-Aminoisobutyric Acid; SITE 6: note = alpha-methyl-2-fluoro-L-phenylalanine; SITE 10: note = 3-(4-Pyridyl)-L-alanine; SITE 17: note = Lysine is chemically modified through conjugation of the epsilon-amino group of the Lysine side chain with (gamma-Glu)2-CO-(CH2)1
B2: Example 397 (peptide)
chain: B1 chain with X10Y, L13X, K16X, S39E
modifications: not fully specified; synthetic construct; SITE 2: note = 2-Aminoisobutyric Acid; SITE 6: note = alpha-methyl-L-phenylalanine; SITE 13: note = alpha-methyl-leucine; SITE 16: note = L-ornithine; SITE 17: note = Lysine is chemically modified through conjugation of the epsilon-amino group of the Lysine side chain with (2-[2)
B3: Example 409 (peptide)
chain: B1 chain with X10Y, I12S
modifications: synthetic construct; SITE 2: note = 2-Aminoisobutyric Acid; SITE 6: note = alpha-methyl-2-fluoro-L-phenylalanine; SITE 17: note = Lysine is chemically modified through conjugation of the epsilon-amino group of the Lysine side chain with (2-[2-(2-Amino-ethoxy)-ethoxy]-acetyl)-(gamma-Glu)-CO-(CH2) 16-
B4: Example 394 (peptide)
chain: B1 chain with X10Y, L13X
modifications: synthetic construct; SITE 2: note = 2-Aminoisobutyric Acid; SITE 6: note = alpha-methyl-L-phenylalanine; SITE 13: note = alpha-methyl-leucine; SITE 17: note = Lysine is chemically modified through conjugation of the epsilon-amino group of the Lysine side chain with (2-[2-(2-Amino-ethoxy)-ethoxy]-ace)
B5: Example 393 (peptide)
chain: B1 chain with X10Y, S11X
modifications: synthetic construct; SITE 2: note = 2-Aminoisobutyric Acid; SITE 6: note = alpha-methyl-L-phenylalanine; SITE 11: note = alpha-methyl-L-serine; SITE 17: note = Lysine is chemically modified through conjugation of the epsilon-amino group of the Lysine side chain with (2-[2-(2-Amino-ethoxy)-ethoxy]-ac)
B6: Example 400 (peptide)
chain: B1 chain with X10Y, L13X, S39E
modifications: synthetic construct; SITE 2: note = 2-Aminoisobutyric Acid; SITE 6: note = alpha-methyl-2-fluoro-L-phenylalanine; SITE 13: note = alpha-methyl-leucine; SITE 17: note = Lysine is chemically modified through conjugation of the epsilon-amino group of the Lysine side chain with (2-[2-(2-Amino-ethoxy)-et)
B7: Example 396 (peptide)
chain: B1 chain with X10Y, L13X, S39E
modifications: synthetic construct; SITE 2: note = 2-Aminoisobutyric Acid; SITE 6: note = alpha-methyl-L-phenylalanine; SITE 13: note = alpha-methyl-leucine; SITE 17: note = Lysine is chemically modified through conjugation of the epsilon-amino group of the Lysine side chain with (2-[2-(2-Amino-ethoxy)-ethoxy]-ace)
B8: Example 415 (peptide)
chain: B1 chain with X10Y, A21X
modifications: synthetic construct; SITE 2: note = 2-Aminoisobutyric Acid; SITE 6: note = alpha-methyl-2-fluoro-L-phenylalanine; SITE 17: note = Lysine is chemically modified through conjugation of the epsilon-amino group of the Lysine side chain with (gamma-Glu)2-CO-(CH2)16-CO2H; SITE 20: note = 2-Aminoisobutyric
B9: Example 408 (peptide)
chain: B1 chain with X10Y, S39E
modifications: synthetic construct; SITE 2: note = 2-Aminoisobutyric Acid; SITE 6: note = alpha-methyl-2-fluoro-L-phenylalanine; SITE 17: note = Lysine is chemically modified through conjugation of the epsilon-amino group of the Lysine side chain with (2-[2-(2-Amino-ethoxy)-ethoxy]-acetyl)-(gamma-Glu)-CO-(CH2) 16-
B10: Example 406 (peptide)
chain: B1 chain with X10Y
modifications: synthetic construct; SITE 2: note = 2-Aminoisobutyric Acid; SITE 6: note = alpha-methyl-2-fluoro-L-phenylalanine; SITE 17: note = Lysine is chemically modified through conjugation of the epsilon-amino group of the Lysine side chain with (gamma-Glu)2-CO-(CH2)16-CO2H; SITE 20: note = 2-Aminoisobutyric
B11: Example 414 (peptide)
chain: B1 chain with X10Y, K16X
modifications: synthetic construct; SITE 2: note = 2-Aminoisobutyric Acid; SITE 6: note = alpha-methyl-2-fluoro-L-phenylalanine; SITE 16: note = L-ornithine; SITE 17: note = Lysine is chemically modified through conjugation of the epsilon-amino group of the Lysine side chain with (gamma-Glu)2-CO-(CH2)16-CO2H; SITE
B12: Example 401 (peptide)
chain: YXQGTXTSDXXIXLDXKAQXXFIEXLIEGGPSSGEPPPSEG
modifications: synthetic construct; SITE 2: note = 2-Aminoisobutyric Acid; SITE 6: note = alpha-methyl-2-fluoro-L-phenylalanine; SITE 10: note = 3-(4-Pyridyl)-L-alanine; SITE 11: note = alpha-methyl-L-serine; SITE 13: note = alpha-methyl-leucine; SITE 16: note = L-ornithine; SITE 17: note = Lysine is chemically mo
B13: Example 403 (peptide)
chain: B12 chain with X10Y, I27E, S39E
modifications: synthetic construct; SITE 2: note = 2-Aminoisobutyric Acid; SITE 6: note = alpha-methyl-2-fluoro-L-phenylalanine; SITE 11: note = alpha-methyl-L-serine; SITE 13: note = alpha-methyl-leucine; SITE 16: note = L-ornithine; SITE 17: note = Lysine is chemically modified through conjugation of the epsilon

Molecular target: human glucagon receptor (human) (UniProt P47871)
Experiment: cell-based or functional assay

Sequence of human glucagon receptor (human) (P47871 26-477): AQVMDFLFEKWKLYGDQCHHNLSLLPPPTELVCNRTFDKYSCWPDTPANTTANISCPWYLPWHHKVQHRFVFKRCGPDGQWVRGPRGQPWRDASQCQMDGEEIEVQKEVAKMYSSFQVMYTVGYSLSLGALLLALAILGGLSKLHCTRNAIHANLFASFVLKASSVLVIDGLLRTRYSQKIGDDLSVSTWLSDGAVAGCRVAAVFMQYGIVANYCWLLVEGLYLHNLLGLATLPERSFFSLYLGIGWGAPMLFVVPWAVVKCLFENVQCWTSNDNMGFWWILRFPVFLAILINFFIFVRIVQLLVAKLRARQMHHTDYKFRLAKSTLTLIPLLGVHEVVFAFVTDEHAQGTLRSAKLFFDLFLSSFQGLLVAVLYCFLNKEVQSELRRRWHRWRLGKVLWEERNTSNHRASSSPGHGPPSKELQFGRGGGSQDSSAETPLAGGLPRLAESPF

In order of falling Relative cAMP EC50:
1. Y[Aib]QGT[αMePhe(2-F)]TSDYSILLDAKAFIEYLEEGGPSSGAPPPSEG-NH2 (not fully specified (residue 17)) [Example 410]  9.94 nM
2. B8  8.64 nM
3. B3  7.92 nM
4. B1  6.3 nM
5. B2  5.22 nM
6. B7  4.99 nM
7. B11  4.56 nM
8. B6  2.53 nM
9. B12  1.99 nM
10. B9  1.93 nM
11. B13  1.59 nM
12. B10  1.23 nM
13. B5  0.947 nM

In order of falling cAMP Rel EC50, nM (1% HSA):
1. Y[Aib]QGT[αMePhe(2-F)]TSDYSILLDAKAFIEYLEEGGPSSGAPPPSEG-NH2 (not fully specified (residue 17)) [Example 410]  1950 nM
2. B3  1190 nM
3. B2  1110 nM
4. B4  1090 nM
5. B8  1090 nM
6. B1  629 nM
7. B13  527 nM
8. B11  487 nM
9. B9  472 nM
10. B7  468 nM
11. B6  265 nM
12. B10  254 nM
13. B5  151 nM
14. B12  111 nM

Molecular target: hGLP-1R (Homo sapiens, UniProt P43220)
Experiment: cell-based or functional assay

Sequence of hGLP-1R (P43220 24-463): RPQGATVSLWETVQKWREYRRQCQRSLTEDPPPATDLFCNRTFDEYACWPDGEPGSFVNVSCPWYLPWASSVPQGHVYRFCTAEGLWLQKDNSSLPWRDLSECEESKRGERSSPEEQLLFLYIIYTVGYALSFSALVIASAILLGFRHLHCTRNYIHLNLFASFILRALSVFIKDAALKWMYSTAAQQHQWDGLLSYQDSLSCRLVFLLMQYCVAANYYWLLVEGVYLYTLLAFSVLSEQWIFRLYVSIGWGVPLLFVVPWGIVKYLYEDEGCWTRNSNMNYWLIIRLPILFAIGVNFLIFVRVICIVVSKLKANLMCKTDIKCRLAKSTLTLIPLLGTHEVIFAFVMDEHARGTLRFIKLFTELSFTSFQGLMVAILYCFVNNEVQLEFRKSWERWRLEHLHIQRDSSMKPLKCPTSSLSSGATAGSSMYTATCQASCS

In order of rising Relative cAMP EC50:
1. B11  0.176 nM
2. B2  0.2 nM
3. B10  0.208 nM
4. B5  0.211 nM
5. B12  0.213 nM
6. B6  0.253 nM
7. B9  0.253 nM
8. B7  0.293 nM
9. Y[Aib]QGT[αMePhe(2-F)]TSDYSILLDAKAFIEYLEEGGPSSGAPPPSEG-NH2 (not fully specified (residue 17)) [Example 410]  0.354 nM
10. B8  0.38 nM
11. B13  0.396 nM
12. B3  0.484 nM
13. B1  0.564 nM

In order of rising cAMP Rel EC50, nM (1% HSA):
1. B12  12 nM
2. B10  27.8 nM
3. B6  29.1 nM
4. B5  29.6 nM
5. B11  32.8 nM
6. B4  33.2 nM
7. B2  34.9 nM
8. B9  37.9 nM
9. B7  38.2 nM
10. B1  41.4 nM
11. B3  41.7 nM
12. B8  52.6 nM
13. B13  70 nM
14. Y[Aib]QGT[αMePhe(2-F)]TSDYSILLDAKAFIEYLEEGGPSSGAPPPSEG-NH2 (not fully specified (residue 17)) [Example 410]  84.4 nM

Molecular target: T1, human GIP receptor (human)
Experiment: cell-based or functional assay

In order of falling Relative cAMP EC50:
1. B3  0.363 nM
2. B1  0.0881 nM
3. B13  0.0827 nM
4. Y[Aib]QGT[αMePhe(2-F)]TSDYSILLDAKAFIEYLEEGGPSSGAPPPSEG-NH2 (not fully specified (residue 17)) [Example 410]  0.0708 nM
5. B8  0.0496 nM
6. B5  0.0458 nM
7. B9  0.0329 nM
8. B11  0.0303 nM
9. B2  0.0247 nM
10. B7  0.024 nM
11. B10  0.0233 nM
12. B12  0.0183 nM
13. B6  0.0158 nM

In order of rising cAMP Rel EC50, nM (1% HSA):
1. B12  1.71 nM
2. B6  3.86 nM
3. B4  7.22 nM
4. B7  9.5 nM
5. B2  10.1 nM
6. B10  10.5 nM
7. B5  12.4 nM
8. B11  14.9 nM
9. B9  15.3 nM
10. B1  23.5 nM
11. B8  28.9 nM
12. B13  36.9 nM
13. Y[Aib]QGT[αMePhe(2-F)]TSDYSILLDAKAFIEYLEEGGPSSGAPPPSEG-NH2 (not fully specified (residue 17)) [Example 410]  49.3 nM
14. B3  66.6 nM
